In article PMC4666391 (Nucleic Acids Research, 2015):

Experiments:
[1] = biological target: T1, pre-RC (MCM2–7 double-hexamer on DNA) in the presence of DDK (S. cerevisiae, UniProt P29469 1-868; P24279 1-971; P30665 1-933; P29496 1-775; P53091 1-1017; P38132 …, phosphorylated by DDK, sites not printed | phosphorylated by DDK, sites not printed | phosphorylated by DDK, sites not given); experiment: SEC; gel-filtration based pre-RC assay: Sld3 or Sld2 (40 nM) added alone to pre-RC with DDK (5 nM); signal corrected for Mcm2 and compared with the reaction without DDK; settings: both partners purified
T1 construct: Mcm2, subunit of MCM2–7, S. cerevisiae; Mcm3, subunit of MCM2–7, S. cerevisiae; Mcm4, subunit of MCM2–7, S. cerevisiae; Mcm5, subunit of MCM2–7, S. cerevisiae; Mcm6, subunit of MCM2–7, S. cerevisiae; Mcm7, subunit of MCM2–7, S. cerevisiae; DDK was added together with the factors, so the extent of phosphorylation at early times is not known; also called DDK-phosphorylated pre-RC; source: assembled …

[2] = biological target: T2, pre-RC (MCM2–7 double-hexamer loaded on pUC19-ARS1 DNA) (S. cerevisiae, UniProt P29469 1-868; P24279 1-971; P30665 1-933; P29496 1-775; P53091 1-1017; P38132 …); experiment: SEC; gel-filtration based pre-RC assay: Sld2 and Sld3 added together to pre-RC, no DDK; 40 nM each for 1 min, titrations (Sld2 60 and 90 nM; Sld3 90 nM) and time course 0.5–30 min, over which binding of both decreased; settings: both partners purified
T2 construct: Mcm2, subunit of MCM2–7, S. cerevisiae; Mcm3, subunit of MCM2–7, S. cerevisiae; Mcm4, subunit of MCM2–7, S. cerevisiae; Mcm5, subunit of MCM2–7, S. cerevisiae; Mcm6, subunit of MCM2–7, S. cerevisiae; Mcm7, subunit of MCM2–7, S. cerevisiae; Loaded around double-stranded plasmid DNA; also called pre-replicative complex; source: assembled in solution from purified ORC, Cdc6, Cdt1 and MCM2–7 (40 nM …)

fold increase of binding with DDK, against the pre-RC without DDK [1]: ~2 fold
fold reduction of binding when Sld3 is added, against Sld2 alone [2]: ~4 fold
B1: Sld2 (purified) (natural protein, S. cerevisiae, UniProt P34252 1-453, looked up)
chain: MYSFELDKLKIELKTWEHDFIDKNKREPTRDDIKSLRTVRQMYKQYSTLKKKQSLQRQKVDTQESVELPAHKKDHDEVVEIGPTPQVYGKAISIFDMNLSPIKPIYMTFTNNIDVNNDNSKTISNESSPRKTILLKSSPADRTLVAEPISSVKRQLNFQMLNASSTRTPTSSPCKNRNGKLVEIKKCSPTINPPLESGKPSGYYGPNSPLKLDEENIHLNISLNSSTKRRLQIAYPSLQKTPSKDQADISTSFSPSPLIRRPLTKSLIELAREHTEIVKEFGVLQEEDIEEEEEGEEGENGYDEKNHEDDFGLEDELIRPKVVKDIFQEDDDNDDSQAREDTFIRKRPKRRKVIRRLRDNDPETETAGFERDVHKELVKLKRRKVAEFLGSTSQISDTEFEHDPEASSGVVSSEQKPTAKRKGRKKYNLVSNNFRRLKLPKKNRFSNGRWGRR
notes: Sld2, S. cerevisiae; it may or may not be the same preparation as GST-Sld2; also called purified Sld2; source: purified
